Assay results: patent publication US8889408B2, “Factor taking part in transcription control” (Sony Corporation, priority 2002, dated 2014)

System: retinoic acid receptor
Test: RAR reporter CAT analysis in HepG2 cells
Format: cell-based
Conditions: pcDNA3-HDART 0, 0.5, 1.0 μg; ATRA 10^−8 M; HepG2 cells
Protocol: Since it is shown in the above example that HDART is able to interact with Skip, the functional role of HDART on the transcription route ascribed to a nuclear receptor was analyzed. First, the effect of HDART on the transcription regulation by retinoic acid receptor was analyzed. For this purpose, the CAT analysis was made using a RAR (retinoid acid receptor) reporter plasmid incorporating a thymidine kinase minimum promoter (pTREpal-tata) and CAT gene therein downstream of a retinoid response element.
More particularly, pcDNA3-HDART, capable of steadily expressing HDART, and, at the same time, RAR reporter plasmid, were transfected into HepG2 cells by use of Effectene kit (QIAGEN™). It is to be noted that the pcDNA3-HDART expression vector was introduced in different amounts of 0, 0.5 and 1.0 μg, and the amount of DNA in the respective transfections was equalized at 1 μg by adding the appropriate amount of a vacant vector of pcDNA. After the transfection, growth was made in the presence (10^−8 M) or absence of ATRA and the CAT activity was measured. The results of the measurement (FIG. 6) are indicated in terms of values corrected on the basis of the CAT activity obtained after introduction of 1.0 μg of a vacant vector in the absence of ATRA. In addition, the average of the results of three experiments and a standard deviation in terms of an error bar are also shown.
Next, the influence of the overexpression of N4TPR on the transcription from RAR or a glucocorticoid responsive promoter was checked. It will be noted that this test was made in the same manner as in the reporter analysis set out in Example 4, but using GFP-N4TPR expression vector (0, 0.3 and 0.5 μg).

B1: HDART: HDAC associated repressor TPR protein, 855 amino acids, SEQ ID NO: 2; transcription repressing factor, used as fusions or expressed from vector (protein, listed as Homo sapiens)
chain: MVVMARLSRPERPDLVFEEEDLPYEEEIMRNQFSVKCWLRYIEFKQGAPKPRLNQLYERALKLLPCSYKLWYRYLKARRAQVKHRCVTDPAYEDVNNCHERAFVFMHKMPRLWLDYCQFLMDQGRVTHTRRTFDRALRALPITQHSRIWPLYLRFLRSHPLPETAVRGYRRFLKLSPESAEEYIEYLKSSDRLDEAAQRLATVVNDERFVSKAGKSNYQLWHELCDLISQNPDKVQSLNVDAIIRGGLTRFTDQLGKLWCSLADYYIRSGHFEKARDVYEEAIRTVMTVRDFTQVFDSYAQFEESMIAAKMETASELGREEEDDVDLELRLARFEQLISRRPLLLNSVLLRQNPHHVHEWHKRVALHQGRPREIINTYTEAVQTVDPFKATGKPHTLWVAFAKFYEDNGQLDDARVILEKATKVNFKQVDDLASVWCQCGELELRHENYDEALRLLRKATALPARRAEYFDGSEPVQNRVYKSLKVWSMLADLEESLGTFQSTKAVYDRILDLRIATPQIVINYAMFLEEHKYFEESFKAYERGISLFKWPNVSDIWSTYLTKFIARYGGRKLERARDLFEQALDGCPPKYAKTLYLLYAQLEEEWGLARHAMAVYERATRAVEPAQQYDMFNIYIKRAAEIYGVTHTRGIYQKAIEVLSDEHAREMCLRFADMECKLGEIDRARAIYSFCSQICDPRTTGAFWQTWKDFEVRHGNEDTIKEMLRIRRSVQATYNTQVNFMASQMLKVSGSATGTVSDLAPGQSGMDDMKLLEQRAEQLAAEAERDQPLRAQSKILFVRSDASREELAELAQQVNPEEIQLGEDEDEDEMDLEPNEVRLEQQSVPAAVFGSLKED
Question: Which “ATRA-induced CAT activity” value does the source give for B1 here?
Answer: inhibited by HDART in a concentration dependent manner
